Assay results published in patent publication US12331120 (dated 2025).

Legend:
[1] = target: T1, human PD-L1 (human, UniProt Q9NZQ7); assay: BLI
[2] = target: T1, human PD-L1; assay: SPR
[3] = target: mouse PD-L1 (mouse, UniProt Q9EP73); assay: SPR
mouse PD-L1, sequence (Q9EP73 19-238): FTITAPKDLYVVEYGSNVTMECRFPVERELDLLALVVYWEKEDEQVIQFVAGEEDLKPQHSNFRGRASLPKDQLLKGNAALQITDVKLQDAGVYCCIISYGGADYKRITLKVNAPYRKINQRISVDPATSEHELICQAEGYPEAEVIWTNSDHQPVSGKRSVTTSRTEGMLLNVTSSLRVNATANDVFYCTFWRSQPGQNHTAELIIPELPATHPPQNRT

T1 sequence (Q9NZQ7 19-238): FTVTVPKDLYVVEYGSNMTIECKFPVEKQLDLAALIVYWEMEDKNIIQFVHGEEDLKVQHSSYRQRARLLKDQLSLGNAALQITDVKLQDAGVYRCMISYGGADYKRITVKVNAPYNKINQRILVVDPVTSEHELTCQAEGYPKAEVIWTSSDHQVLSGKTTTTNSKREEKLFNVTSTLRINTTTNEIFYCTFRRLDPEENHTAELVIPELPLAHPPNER

| Kd [1] [nM] | Kd [2] [nM] | Kd [3] [nM] | Binder |
| --- | --- | --- | --- |
| 0.00489 | ~0.0632 | ~2.8 | KL001-13 (antibody, V domains shown) VH: QVQLVESGAEVKKPGSSVKVSCKASGGTFSSYAISWVRQAPGQGLEWMGRIIPILGIANYAQKFQGRVTVTADKSTSTAYMELSSLRSEDTAVYYCARSGYGYAYGSFDYWGQGTLVTVSS VL: QLVLTQPPSVSGAPGQTVTISCTGQTIGAGYDVHWYQQLPGAAPKLLIYGNLNRPSGVPDRFSGSKSGTSASLAITDLQAEDEADYYCQSYDSRLGVVFGGGTKLTVL |
| 0.0584 |  |  | KL001 (PL110) (antibody, V domains shown) VH: QVQLVESGAEVKKPGSSVKVSCKASGGTFSSYAISWVRQAPGQGLEWMGRIIPILGIANYAQKFQGRVTVTADKSTSTAYMELSSLRSEDTAVYYCARSGYSYAYGSFDYWGQGTLVTVSS VL: QLVLTQPPSVSGAPGQTVTISCTGPTIGAGYDVHWYQQLPGAAPKLLIYGNLNRPSGVPDRFSGSKSGTSASLAITDLQAEDEADYYCQSYDSRLGVVFGGGTKLTVL |
